These results are taken from article PMC12700175.

The assay addresses Pyruvate kinase M2 (PKM2) of mouse retina (mouse (endogenous in retina)) (UniProt P52480). In words: cross-linking.

With “Pyruvate kinase M2 (PKM2) of mouse retina (from UniProt P52480 1-531) (enzyme)”, the stoichiometry N stood at 4.

The term stoichiometry N denotes the number of molecules, sites or subunits per partner or assembly.
